According to patent publication US20170204150A1 (Stanford University, published 2017):

What was measured:
VEGFR2-Fc [1] = target: T1, VEGFR2-Fc (UniProt P35968 20-764, limits assumed); assay: soluble protein binding to VEGFR2-Fc, Octet platform (lower table; taken as the soluble-form table from legend paragraph 18 and paragraph 153)
T1 construct: Neither the source nor the limits of the VEGFR2-Fc construct are stated; also called VEGFR2 receptor; not shown: Fc part
Description: The Octet® platform was used to measure the soluble affinity of the variants to VEGFR2-Fc and their respective target proteins. As with the results on the yeast surface, the variants' affinities to VEGFR2-Fc were similar to each other and to scVEGFmut.

VEGFR2-Fc [2] = target: T1, VEGFR2-Fc; assay: yeast surface display: VEGFR2/PSMA displayed on the yeast cell surface, titrated with soluble VEGFR2-Fc (upper table; taken as the yeast-display table from legend paragraph 18)
[3] = target: T2, prostate specific membrane antigen (PSMA) (UniProt Q04609 44-750, limits assumed); assay: yeast surface display: VEGFR2/PSMA displayed on the yeast cell surface, titrated with soluble PSMA (upper table; taken as the yeast-display table from legend paragraph 18)
T2 construct: also called folate hydrolase I
T2 sequence (Q04609 44-750 limits assumed): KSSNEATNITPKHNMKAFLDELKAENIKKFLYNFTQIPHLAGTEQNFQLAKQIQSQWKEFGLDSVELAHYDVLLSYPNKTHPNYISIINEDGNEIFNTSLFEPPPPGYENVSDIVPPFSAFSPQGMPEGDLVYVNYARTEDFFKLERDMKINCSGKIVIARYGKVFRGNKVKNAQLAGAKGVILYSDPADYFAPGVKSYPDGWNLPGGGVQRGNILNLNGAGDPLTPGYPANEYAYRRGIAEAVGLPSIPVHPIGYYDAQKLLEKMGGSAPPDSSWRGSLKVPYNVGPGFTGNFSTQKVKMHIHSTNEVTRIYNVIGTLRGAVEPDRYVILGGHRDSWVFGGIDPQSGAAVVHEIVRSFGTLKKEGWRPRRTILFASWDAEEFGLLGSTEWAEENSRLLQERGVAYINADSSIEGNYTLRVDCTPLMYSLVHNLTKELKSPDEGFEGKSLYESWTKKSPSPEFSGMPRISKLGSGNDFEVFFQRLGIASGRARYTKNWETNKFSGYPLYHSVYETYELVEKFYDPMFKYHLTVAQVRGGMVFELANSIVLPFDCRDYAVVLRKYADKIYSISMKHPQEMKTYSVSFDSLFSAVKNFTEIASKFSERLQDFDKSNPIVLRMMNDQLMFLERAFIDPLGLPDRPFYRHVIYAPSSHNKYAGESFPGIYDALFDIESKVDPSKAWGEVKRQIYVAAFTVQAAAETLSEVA

[4] = target: T2, prostate specific membrane antigen …; assay: yeast surface display, titration with soluble PSMA, PSMA bound in arbitrary fluorescence
VEGFR2-Fc [5] = target: T1, VEGFR2-Fc; assay: yeast surface display, titration with soluble VEGFR2-Fc, % maximum VEGFR2-Fc bound
VEGFR2-Fc [6] = target: T1, VEGFR2-Fc; assay: yeast surface display: scVEGFmut displayed on the yeast cell surface, titrated with soluble VEGFR2-Fc (upper table; taken as the yeast-display table from legend paragraph 18)

T1 sequence (P35968 20-764 limits assumed): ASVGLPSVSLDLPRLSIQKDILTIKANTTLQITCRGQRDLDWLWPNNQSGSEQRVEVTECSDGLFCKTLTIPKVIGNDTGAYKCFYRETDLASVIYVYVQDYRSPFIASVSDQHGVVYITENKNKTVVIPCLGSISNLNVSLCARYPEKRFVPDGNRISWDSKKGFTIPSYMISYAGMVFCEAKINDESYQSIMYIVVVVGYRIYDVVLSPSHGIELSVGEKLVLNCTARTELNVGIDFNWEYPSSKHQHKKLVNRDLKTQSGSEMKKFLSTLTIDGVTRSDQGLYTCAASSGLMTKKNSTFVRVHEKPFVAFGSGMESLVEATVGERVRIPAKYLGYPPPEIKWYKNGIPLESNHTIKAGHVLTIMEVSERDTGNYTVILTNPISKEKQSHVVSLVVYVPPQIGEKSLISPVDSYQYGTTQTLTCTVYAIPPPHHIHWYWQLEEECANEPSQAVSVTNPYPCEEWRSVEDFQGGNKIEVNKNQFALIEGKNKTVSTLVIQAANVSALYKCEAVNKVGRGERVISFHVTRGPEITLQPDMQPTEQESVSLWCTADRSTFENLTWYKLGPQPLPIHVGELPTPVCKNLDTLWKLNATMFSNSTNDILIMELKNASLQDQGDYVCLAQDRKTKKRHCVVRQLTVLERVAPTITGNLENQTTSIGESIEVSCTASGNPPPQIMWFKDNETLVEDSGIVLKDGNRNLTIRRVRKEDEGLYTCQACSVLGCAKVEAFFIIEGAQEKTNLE

Kd (VEGFR2-Fc [1])	Kd (VEGFR2-Fc [2])	Kd [3]	EC50 (read off the curve) [4]	EC50 (read off the curve) (VEGFR2-Fc [5])	Kd (VEGFR2-Fc [6])	Binder
13 nM	4.6 nM	58 nM	~40 nM	~4 nM		VEGFR2/PSMA protein (designed binder) EVVKAMDVYQRSYCHPIETLVDIFQEYPDEIEYIFKPSCVPLMRCGGCCNDAGLECVPTEESNITMQIMRIKPHQGQHIGEMSFLQHNKCECRPKKDGGGGSGGGGSGGGGSGGGGSEVVKFMDVYQRSYCHPIETLVDIFQEYPSIASWNPWMAFKPSCVPLMRCGGCCNDEGLECVPTEESNITMQIMRNRLFRYLPVRHIGEMSFLQHNKCECRPKKD
13 nM				~6 nM	6 nM	scVEGFmut (ligand, also called single-chain antagonist mutant VEGF; scaffold protein) APMAEGGGQNHHEVVKAMDVYQRSYCHPIETLVDIFQEYPDEIEYIFKPSCVPLMRCGGCCNDAGLECVPTEESNITMQIMRIKPHQGQHIGEMSFLQHNKCECRPKKDRARQEKCDKPRRGGGGSGGGGSGGGGSGGGGSAPMAEGGGQNHHEVVKFMDVYQRSYCHPIETLVDIFQEYPDEIEYAFKPSCVPLMRCGGCCNDEGLECVPTEESNITMQIMRAKPHQGQHIGEMSFLQHNKCECRPKKDRARQEKCDKPRR
